Reference: patent US20210363232A1 (Eli Lilly, published 2021)

B4: mature Human IL-34 (ligand)
chain: NEPLEMWPLTQNEECTVTGFLRDKLQYRSRLQYMKHYFPINYKISVPYEGVFRIANVTRLQRAQVSERELRYLWVLVSLSATESVQDVLLEGHPSWKYLQEVETLLLNVQQGLTDVEVSPKVESVLSLLNAPGPNLKLVRPKALLDNCFRVMELLYCSCCKQSSVLNWQDCEVPSPQSCSPEPSLQYAATQLYPPPPWSPSSPPHSTGSVRPVRAQGEGLLP
notes: if the entry is the precursor, residues 21-242 apply; NCBI NP_689669.2 is printed; also called hIL-34; h IL-34

Experiments:
mature Human IL-34 [1] = molecular target: B4; experiment: MSD solution equilibrium titration at 37 C; fixed antibody, IL-34 titrated, free antibody captured on IL-34-coated plate; mean ± STDEV, n = 5
Experimental: (§1) Briefly, usually a 2-fold or 3-fold dilution series of human, cyno or mouse IL-34 is prepared from a starting concentration of 40, or 50 or 60 or 80 or 100 or 120 nM to 100 fM; and each series includes an IL-34 blank control. Samples are prepared in 3% (w/v) Blocker A solution (MSD®, #R93AA-1) and a fixed final concentration of 5-50 pM of each exemplified antibody in Table 1 is added to each sample. An antibody only control is included. A volume of 50 μl of each protein-antibody sample is added to individual wells of a 96-well microtiter plate (Greiner, EK-20101). The plate is sealed with optical adhesive film (Thermo Fisher Scientific, #4311971) and incubated at 37° C. for 1-3 days to allow for sample equilibrium. On the day before analysis, each row of a 96-well MSD® Standard plate (MSD®, #L15XA) is coated with 30 μl of the corresponding IL-34 (as used in the titration series) at a concentration of 1 μg/ml in phosphate buffered saline (PBS). […] The plate is washed three more times with PBST followed by the addition of 150 μl/well of 1× Read buffer (MSD®, #R92TC-2). The MSD® Standard plate is read using a MESO Quickplex SQ 120/1300 instrument (Meso Scale Discovery).

Cyno IL-34 [2] = molecular target: T1, Cyno IL-34 (cyno (cynomolgus monkey), UniProt G7Q1L3 21-242); experiment: cell-based or functional assay
T1 sequence: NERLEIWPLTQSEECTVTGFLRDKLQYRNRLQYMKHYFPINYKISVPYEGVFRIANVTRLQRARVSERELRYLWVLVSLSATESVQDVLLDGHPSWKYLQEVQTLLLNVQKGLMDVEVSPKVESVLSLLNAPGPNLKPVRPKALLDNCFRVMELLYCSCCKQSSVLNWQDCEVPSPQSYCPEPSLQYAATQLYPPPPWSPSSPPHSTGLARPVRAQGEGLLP

Cyno IL-34 [3] = molecular target: T1, Cyno IL-34; experiment: MSD solution equilibrium titration at 37 C; fixed antibody, cyno IL-34 titrated; mean ± STDEV, n = 5
Experimental: as §1

mature Human IL-34 [4] = molecular target: B4; experiment: cell-based or functional assay
mature Human IL-34 [5] = molecular target: B4; experiment: cell-based or functional assay; remark: listed apart in the source
[6] = molecular target: IL-34 (species not stated); experiment: cell-based or functional assay
Mouse IL-34 = molecular target: T2, Mouse IL-34 (mouse, UniProt Q8R1R4 21-235); experiment: MSD solution equilibrium titration at 37 C; fixed antibody, mouse IL-34 titrated
T2 construct: NCBI NP_001128572.1 is printed; also called Murine IL-34
T2 sequence: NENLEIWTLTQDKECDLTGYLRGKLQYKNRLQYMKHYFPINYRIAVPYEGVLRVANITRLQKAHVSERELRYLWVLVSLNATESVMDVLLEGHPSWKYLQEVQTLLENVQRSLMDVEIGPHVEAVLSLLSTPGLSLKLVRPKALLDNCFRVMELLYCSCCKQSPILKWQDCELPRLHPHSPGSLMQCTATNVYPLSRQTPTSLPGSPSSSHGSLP
Experimental: as §1

[7] = molecular target: T3, Human CSF1R Fc fusion protein (Exemplified compound D) (human, UniProt P07333 20-512, limits assumed); experiment: MSD solution equilibrium titration at 37 C; fixed Fc fusion, IL-34 titrated, free protein captured on IL-34-coated plate; mean ± STDEV, n = 5
T3 construct: Made in house and purified by MabSelect SuRe and size exclusion; also called hCSF1R-Fc; Exemplified compound D (hCSF1R-Fc); not shown: Fc part
T3 sequence (P07333 20-512 limits assumed): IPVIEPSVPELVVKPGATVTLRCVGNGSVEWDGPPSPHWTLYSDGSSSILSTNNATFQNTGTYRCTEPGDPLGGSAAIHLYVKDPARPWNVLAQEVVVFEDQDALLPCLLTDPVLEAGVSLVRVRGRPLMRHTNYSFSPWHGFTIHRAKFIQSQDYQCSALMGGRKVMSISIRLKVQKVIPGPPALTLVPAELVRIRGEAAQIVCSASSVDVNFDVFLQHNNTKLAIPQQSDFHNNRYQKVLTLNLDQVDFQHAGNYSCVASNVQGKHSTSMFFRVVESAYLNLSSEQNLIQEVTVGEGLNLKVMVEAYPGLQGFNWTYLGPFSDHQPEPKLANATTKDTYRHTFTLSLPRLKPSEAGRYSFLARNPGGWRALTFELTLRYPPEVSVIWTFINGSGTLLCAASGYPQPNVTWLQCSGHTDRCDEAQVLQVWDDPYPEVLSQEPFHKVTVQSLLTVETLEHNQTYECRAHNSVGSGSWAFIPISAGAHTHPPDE

B1: Antibody 1 (antibody, human IgG4 S228P, kappa, F234A L235A, V domains shown)
VH: EVQLLESGGGLVQPGGSLRLSCAASGFTFSSYATSWVRQAPGKGLEWVSAISHSGRSTYYADSVKGRFTISRDNSKNTLYLQMNSLRAEDTAVYYCARGRSSLDTWGQGTLVTVSS
VL: EIVLTQSPGTLSLSPGERATLSCRASQSISSAYLAWYQQKPGQAPRLLIYASSIRPTGIPDRFSGSGSGTDFTLTISPLEPEDFAVYYCSQYGDSLSFGGGTKVEIKR
notes: Human anti-human IL-34 antibody with a modified IgG4 (IgG4PAA) heavy chain and kappa light chain; also called Exemplified Antibody 1
B1 was tested, and the Kd (mature Human IL-34 [1]) was 0.059 nM, the “IC50; neutralization of cyno IL-34 induced luciferase reporter activity, hCSF1R 293 SRE cells” value (Cyno IL-34 [2]) was 0.654 nM and the Kd (Cyno IL-34 [3]) was 0.108 nM. For the same binder, the “IC50; neutralization of human IL-34 induced luciferase reporter activity, hCSF1R 293 SRE cells” value (mature Human IL-34 [4]) was 0.385 nM and the “IC50; inhibition of human IL-34 induced CSF1R dimerization, PathHunter eXpress assay” value (mature Human IL-34 [5]) was 0.226 nM.

B2: Antibody 2 (antibody, human IgG4 S228P, kappa, F234A L235A, V domains shown)
VH: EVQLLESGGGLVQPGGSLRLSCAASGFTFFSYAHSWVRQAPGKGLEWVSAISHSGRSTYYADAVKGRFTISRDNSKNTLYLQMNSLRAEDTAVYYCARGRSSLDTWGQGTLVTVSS
VL: EIVLTQSPGTLSLSPGERATLSCRASQSISSAYLAWYQQKPGQAPRLLIYASSIRPTGIPDRFSGSGSGTDFTLTISPLEPEDFAVYYCSQYGDSLSFGGGTKVEIKR
notes: Shares its light chain with Antibody 1; Modified IgG4 heavy chain; also called Exemplified Antibody 2
Work on B2 yielded a Kd (mature Human IL-34 [1]) of 0.054 nM and a Kd (Cyno IL-34 [3]) of 0.152 nM.

B3: Antibody 3 (antibody, mouse IgG1, kappa, V domains shown)
VH: EVQLLESGGGLVQPGGSLRLSCAASGFTFSYYAMSWVRQAPGKGLEWVSAISHRGGSTLYADSVKGRFTISRDNSKNTLYLQMNSLRAEDTAVYYCARGRSSLDGWGQGTMVTVSS
VL: EIVLTQSPGILSLSPGERASLSCRASTSVSSAYLAWYQQKPGQAPRLLIYASSHRPLGIPDRFSGSGSGTDFTLTISRLEPEDFAVYYCQQYGDSLSFGGGTKVEIKR
notes: Antibody optimised against mouse IL-34; The printed constant regions look murine, and a mIgG1 control is used in vivo; also called Exemplified Antibody 3
For B3, the “IC50; inhibition of IL-34 induced ERK phosphorylation in NIH-3T3/CSF1R cells” value [6] was 15.7 nM and the Kd (Mouse IL-34) was 0.016 nM.

In the case of B4, the Kd [7] is reported as 0.056 nM.
